Substitutions are numbered along the chain they refer to. Numbers in names are those of the source.
T1: purified recombinant SLP-76
T1 sequence (Q13094 1-533, species assumed, looked up): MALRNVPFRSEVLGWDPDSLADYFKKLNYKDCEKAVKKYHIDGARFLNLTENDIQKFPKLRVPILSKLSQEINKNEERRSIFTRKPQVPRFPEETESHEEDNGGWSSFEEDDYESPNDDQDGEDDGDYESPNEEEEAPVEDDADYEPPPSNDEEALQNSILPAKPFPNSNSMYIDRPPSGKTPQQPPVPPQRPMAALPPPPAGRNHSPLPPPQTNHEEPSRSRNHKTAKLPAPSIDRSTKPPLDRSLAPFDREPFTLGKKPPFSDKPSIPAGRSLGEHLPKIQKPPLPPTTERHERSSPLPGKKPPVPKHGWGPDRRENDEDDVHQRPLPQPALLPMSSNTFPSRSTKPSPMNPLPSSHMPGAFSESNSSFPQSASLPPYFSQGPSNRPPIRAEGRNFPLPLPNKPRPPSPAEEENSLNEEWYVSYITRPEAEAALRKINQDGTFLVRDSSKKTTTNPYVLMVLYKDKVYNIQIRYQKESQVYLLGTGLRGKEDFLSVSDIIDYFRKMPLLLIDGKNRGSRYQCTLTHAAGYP

B1: FLAG-BTK wild-type (murine BTK with N-terminal 3XFLAG tag) (enzyme)
chain: MAAVILESIFLKRSQQKKKTSPLNFKKRLFLLTVHKLSYYEYDFERGRRGSKKGSIDVEKITCVETVIPEKNPPPERQIPRRGEESSEMEQISIIERFPYPFQVVYDEGPLYVFSPTEELRKRWIHQLKNVIRYNSDLVQKYHPCFWIDGQYLCCSQTAKNAMGCQILENRNGSLKPGSSHRKTKKPLPPTPEEDQILKKPLPPEPTAAPISTTELKKVVALYDYMPMNANDLQLRKGEEYFILEESNLPWWRARDKNGQEGYIPSNYITEAEDSIEMYEWYSKHMTRSQAEQLLKQEGKEGGFIVRDSSKAGKYTVSVFAKSTGEPQGVIRHYVVCSTPQSQYYLAEKHLFSTIPELINYHQHNSAGLISRLKYPVSKQNKNAPSTAGLGYGSWEIDPKDLTFLKELGTGQFGVVKYGKWRGQYDVAIKMIREGSMSEDEFIEEAKVMMNLSHEKLVQLYGVCTKQRPIFIITEYMANGCLLNYLREMRHRFQTQQLLEMCKDVCEAMEYLESKQFLHRDLAARNCLVNDQGVVKVSDFGLSRYVLDDEYTSSVGSKFPVRWSPPEVLMYSKFSSKSDIWAFGVLMWEIYSLGKMPYERFTNSETAEHIAQGLRLYRPHLASERVYTIMYSCWHEKADERPSFKILLSNILDVMDEES
modifications: N-terminal 3xFLAG tag
B2: FLAG-BTK R28C (xid mutant of murine BTK with N-terminal 3XFLAG tag) (enzyme)
chain: B1 chain with R28C
modifications: N-terminal 3xFLAG tag
B3: FLAG-BTK K430R (dominant negative mutant of murine BTK with N-terminal 3XFLAG tag) (enzyme)
chain: B1 chain with K430R
modifications: N-terminal 3xFLAG tag
B4: FLAG-BTK E41K (gain of function mutant of murine BTK with N-terminal 3XFLAG tag) (enzyme)
chain: B1 chain with E41K
modifications: N-terminal 3xFLAG tag

Tested on: T1, purified recombinant SLP-76

Protein | phosphorylation of SLP 76 (incorporation of phosphotyrosine into the substrate, IP kinase assay) | kinase activity
B1 | addition of immunoprecipitated wild-type BTK resulted in phosphorylation of both BTK itself and the SLP 76 target | –
B2 | Addition of BTK immunoprecipitated from the xid construct cell lysate resulted in hyperphosphorylation of the SLP 76 target | the kinase activity of BTK isolated from the xid mutant stable cell pool was significantly higher (approximately 10 fold)
B3 | Phosphorylation using extracts from the “gain of function” and dominant negative mutant cell contracts appeared to be reduced compared to the wild-type BTK | –
B4 | Phosphorylation using extracts from the “gain of function” and dominant negative mutant cell contracts appeared to be reduced compared to the wild-type BTK | –
